The values that follow come from patent publication US5795761A, “Mutants of 2,5-diketo-D-gluconic acid (2,5-DKG) reductase A” (Rutgers, The State University of New Jersey, priority 1996, dated 1998).

Substitutions are numbered along the chain they refer to. Names may count otherwise.

Common to all, as to format: biochemical, Corynebacterium sp. (ATCC 31090)
Substrate in data set [1]: O=C(O)C(=O)[C@@H](O)[C@H](O)C(=O)CO
The experiment in a line: Substrate kinetics of 2,5-DKG reduction (NADPH oxidation followed at 340 nm). As to conditions: other: 50 mM tris pH 7.0, 0.2 mM NADPH, 2 to 14 mM substrate, 25° C. On the procedure:
(§1) The preparations of wild-type and mutant Q192R 2,5-DKG reductase A enzymes were characterized kinetically as to their ability to reduce the substrate 2,5-DKG to 2-KLG. Assays were done in 1 ml total volume of 50 mM tris, pH 7.0, containing 0.2 mM NADPH, a constant amount of enzyme (15-20 μg) and amounts of substrate varying from 2 to 14 mM. The assays were done at 25° C., and the rate of substrate reduction was measured spectrophotometrically by measuring the loss of absorbance at 340 nm wavelength (which is indicative of the oxidation of the cofactor NADPH to NADP+).
The data were analyzed according to the well-known Michaelis equation to determine the kinetic parameters Vmax and Km using the Enzfit software package (Biosoft, Cambridge, UK) on a Epson desktop computer.

Substrate in data set [2]: NC(=O)C1=CN([C@@H]2O[C@H](COP(=O)(O)OP(=O)(O)OC[C@H]3O[C@@H](n4cnc5c(N)ncnc54)[C@H](OP(=O)(O)O)[C@@H]3O)[C@@H](O)[C@H]2O)C=CC1
The experiment in a line: Cofactor kinetics, constant 2,5-DKG and varying NADPH. The conditions noted are these: other: 50 mM bis-Tris pH 6.8, 10 mM 2,5-DKG, 2.5 to 200 μM NADPH. The procedure:
The cofactor affinity of DKG reductase A F22Y, Q192R, A272G, and F22Y/A272G was determined by analysis of a series of reactions with constant substrate concentration and varying concentrations of NADPH.
Each series of reactions consisted of 50 mM bis-Tris pH 6.8, 10 mM 2,5-DKG, from 2.5 to 200 μM NADPH, and enzyme in a total volume of 1.0 ml.
Initial rate data for the reactions were fitted to the Michaelis-Menten equation by non-linear regression analysis as previously described to determine KM,NADPH.

Substrate in data set [3]: O=C(O)C(=O)[C@@H](O)[C@H](O)C(=O)CO
The experiment in a line: Substrate kinetics of 2,5-DKG reduction, 200 μM NADPH, substrate 0 to 30 mM. As to conditions: other: 200 μM NADPH, 0 to 30 mM 2,5-DKG; pH 7.0; 25.0 °C. On the procedure:
as §1
A crude kinetic characterization of 2,5-DKG Reductase A mutants D278A, V277A, E276A, D275A, P274A, H273A, A272G, S271A, V270A, R269A, S267A, and D265A was carried out. […] 2-5-DKG Reductase A mutant A272G was characterized in essentially the same manner as in Example 5 except that in order to determine kinetic parameters for the NADPH-dependent reduction of 2,5-DKG by 2,5-DKG reductases, a series of reactions were done with constant saturating concentration of NADPH (200 μM) and varying concentrations of substrate from 0 to 30 mM.

B1: Corynebacterium sp. 2,5-DKG reductase A, wild type (Corynebacterium sp. ATCC 31090) (protein)
chain: MTVPSIVLNDGNSIPQLGYGVFKVPPADTQRAVEEALEVGYRHIDTAAIYGNEEGVGAAIAASGIARDDLFITTKLWNDRHDGDEPAAAIAESLAKLALDQVDLYLVHWPTPAADNYVHAWEKMIELRAAGLTRSIGVSNHLVPHLERIVAATGVVPAVNQIELHPAYQQREITDWAAAHDVKIESWGPLGQGKYDLFGAEPVTAAAAAHGKTPAQAVLRWHLQKGFVVFPKSVRRERLEENLDVFDFDLTDTEIAAIDAMDPGDGSGRVSAHPDEVD
notes: made in house; host or cells: Acetobacter cerinus (ATCC No. 39140)
Usually Km stands for the substrate concentration at which the rate is half of its maximum. For orientation: kcat/Km means the turnover number divided by the Michaelis constant. Consider B1, for which, in data set [1], the Km is 28 mM, the Vmax was 7.8 μmoles per minute per milligram of protein and the kcat/Km worked out at 140 M⁻¹ s⁻¹.

B2: Corynebacterium sp. 2,5-DKG reductase A mutant F22Y/A272G (Corynebacterium sp. ATCC 31090; A272G/F22Y) (protein)
chain: B1 chain with F22Y, A272G
notes: made in house
In the case of B2, the Michaelis constant (Km) in data set [2] came out at 8.19 µM.

B3: Corynebacterium sp. 2,5-DKG reductase A mutant Q192R (Corynebacterium sp. ATCC 31090; Q192R) (protein)
chain: B1 chain with Q192R
notes: made in house; host or cells: Acetobacter cerinus
For B3, in data set [1], the Michaelis constant (Km) is recorded as 21 mM, the Vmax was 14.0 μmoles per minute per milligram of protein and the specificity constant (kcat/Km) is 335 M⁻¹ s⁻¹.

B4: Corynebacterium sp. 2,5-DKG reductase A mutant A272G (Corynebacterium sp. ATCC 31090; A272G) (protein)
chain: B1 chain with A272G
notes: made in house
For orientation: kcat means the number of substrate molecules converted per active site and unit of time at saturation. Take B4: the values for the Km in data set [2] and in data set [3] were 4.92 µM and 42.61 ± 12.13 mM, respectively. The kcat in data set [3] turned out to be 21.44 ± 4.10 s⁻¹.
